From patent US8809529B2, “Imidazo[1,2-α]pyrazine derivatives” (Promega Corporation, priority 2010, dated 2014) come the findings set out here.

A short description of data set [1]: Km of L27V reversion variants for PBI-3939. In kind it is biochemical. On the procedure:
Relative activities <1 indicate the reversion is detrimental compared to the residue at that site in the L27V variant. Relative activities >1 indicate the reversion is favorable for activity compared to the residue at that site in the L27V variant. Some additional data on these mutants indicated the following: 166K, 54F, 54A and L27V were tested for thermal stability. The T1/2 60° C. for 166K, 54F, and 54A were 87, 74, and 33%, respectively, indicating these substitutions cause a reduction in thermal stability. […] This indicates higher substrate affinity for L27V, particularly for the position 54 substitutions.

For data set [2], the system named is HEK293 cells. The experiment in a line: Stability of 9B8 and V2 in HEK293 cells. In kind it is cell-based, human. The following applies: HEK293 cells lysed in assay reagent, 20 μM PBI-3939. On the procedure:
The variants 9B8 and V2 (9B8+K33N+T39T+K43R+Y68D) were also screened in HEK293 cells to determine their stability. The variants were cloned into pF4Ag and transfected into HEK293 cells (15,000 cells/well) as previously described. After transfection, the cells were lysed in assay reagent (as previously described; no PBI-3939), and luminescence measured using the assay reagent with 20 μM PBI-3939. […] This is consistent with the half-life seen for these variants in E. coli (Table 26).

Data set [3] relates to HEK293 cells. The experiment in a line: Brightness on a per mole basis in HEK293 cells (HT7 fusions). It is filed as cell-based, human.
For data set [4], the system named is CRE. The experiment in a line: CRE transcriptional reporter, bulk transfection, HEK293 cells. It is filed as cell-based, human. On the procedure:
(§1) The transcriptional reporter containing […] and 9B8 opt-P was used in the bulk transfection of HeLa cells
(§2) HEK293, NIH3T3, or HeLa cells were plated to a single well of a 6-well tissue culture plate the day before transfection at a density of 4.5×10^5 cells/well in 3 mL complete medium (DMEM+10% FBS+1×NEAA+1× sodium pyruvate) for HEK293 cells, 3×10^5 cellsNvell in 3 mL complete medium (DMEM+10% fetal calf serum (FCS)+1×NEAA+1× sodium pyruvate) for NIH3T3 cells, or 9.9×10^5 cells/well in 3 mL complete medium (DMEM+10% FBS+1×NEAA) for HeLa cells. Cells were grown overnight at 37° C.
(§3) 3,300 ng of reporter plasmid DNA in 155 4 OPTI-MEM® was mixed with 9.9 μL FUGENE® HD transfection reagent, vortexed briefly, and incubated at room temperature for 10 min. The CRE transcriptional reporters were used to transfect HEK293 and NIH3T3 cells. The HRE transcriptional reporters were used to transfect HeLa cells. The reporter mixture was added to cells and mixed by gentle rocking followed by incubation at 37° C. for 6 hrs (HEK293 and NIH3T3) or 3 hrs (HeLa). Cells were then trypsinized and resuspended in medium (DMEM+10% FBS+1×NEAA+1× sodium pyruvate for HEK293 cells, DMEM+10% FCS+1×NEAA+1× sodium pyruvate for NIH3T3 cells, or DMEM+10% FBS+1×NEAA for HeLa cells), followed by plating to the individual wells of a 96-well plate (20,000 cells/100 μL for HEK293, 10,000 cells/100 4 for NIH3T3, or […] for HeLa) and incubated at 37° C. overnight.
(§4) FSK (CRE stimulator) or 17-AAG (HRE stimulator; 17-Allylamino-demethoxy geldanamycin) in OPTI-MEM® was added to the cells (10 nM or 10 μM final concentration for FSK; 1 nM or 1 μM final concentration for 17-AAG) and incubated at 37° C. for 4 hrs (FSK) or 6 hrs (17-AAG). Plates were removed from the incubator and allowed to equilibrate to room temperature for 25 min. Cells were lysed with 100 μL lytic reagent as described above for the forward transfection. Luminescence was measured on a GLOMAX® Luminometer.

Data set [5] concerns cAMP-response element (CRE). The experiment in a line: cAMP transcriptional reporter in HEK293 cells (Example 36). The following applies: for fold-induction: FSK 5 hrs.
The subject of data set [6] is CRE. The experiment in a line: CRE transcriptional reporter, bulk transfection, NIH3T3 cells. It is filed as cell-based. On the procedure:
as §1, §2, §3, §4

Data set [7] deals with antioxidant response element (ARE). The experiment in a line: ARE transcriptional reporter, reverse transfection, HEK293 cells. In kind it is cell-based, human. The following applies: for baseline: 24 h, 100 ng DNA. On the procedure:
HEK293 cells were trypsinized (T75 flask, 3 mL trypsin) and resuspended in […] (approximately 8.9×10^6 total cells) in medium containing DMEM+10% FBS+1×NEAA. Each transcriptional reporter was prepared for transfection by mixing 1.2 mL OPTI-MEM®, 12 μL transcription reporter DNA (100 ng) and 36 μL FUGENE® HD transfection reagent together and incubated at room temperature for 35 min. Following incubation, 624 μL of the transfection/reporter DNA mixture was added to 12 mL of cell suspension and mixed by inversion. After mixing, 100 μL of the cell/DNA mixture was added to wells of a 96-well plate (2 constructs/plate). The cells were incubated at 37° C. for 22 hrs. Tert-butylhydroquinone (a Nrf2 stabilizer; tBHQ; 1 μM (“baseline”) or 20 μM) or sulphoraphane, (an organosulfer antioxidant known to activate Nrf2; 1 μM (“baseline”) or 20 μM) in OPTI-MEM® was added to each well and incubated at 37° C. for 24 hrs. Cells were lysed with 100 μL lytic reagent as described above for the forward transfection. Luminescence was measured on a GLOMAX® Luminometer.

Data set [8] shares this test system. Described as above. It is filed as cell-based, human. The following applies: 24 h, 100 ng DNA.

B1: L27V: 9B8 opt+K33N variant with L27V, T39T, K43R, Y68D (protein)
chain: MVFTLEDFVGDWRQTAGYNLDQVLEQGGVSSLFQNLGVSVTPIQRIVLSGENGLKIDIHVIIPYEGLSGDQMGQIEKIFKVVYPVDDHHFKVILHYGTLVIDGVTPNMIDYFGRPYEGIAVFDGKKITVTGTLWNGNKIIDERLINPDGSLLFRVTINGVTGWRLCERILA
The term Km denotes the concentration of substrate that gives half-maximal velocity. B1: the Michaelis-Menten constant (Km) in data set [1] stood at 18 µM.

B2: 9B8: IV variant with Q18L, F68Y, L72Q, M75K; in Tables 12, 22, 23, 26, 27 “9B8” stands for 9B8 opt (protein)
chain: MVFTLEDFVGDWRQTAGYNLDQVLEQGGLSSLFQKLGVSVTPIQKIVLSGENGLKIDIHVIIPYEGLSGYQMGQIEKIFKVVYPVDDHHFKVILHYGTLVIDGVTPNMIDYFGRPYEGIAVFDGKKITVTGTLWNGNKIIDERLINPDGSLLFRVTINGVTGWRLCERILA
As usually defined, the half-life is how long it takes for the measured level to halve. A high value points to slow loss. Consider B2, for which the half-life in data set [2] is 5.2 h. In data set [3], the “brightness relative to Luc2” value was “approximately 15 fold” and the “brightness relative to hRL” value was above 100 fold.

B3: 9B8 opt: codon optimized version of the 9B8 variant (protein)
chain: MVFTLEDFVGDWRQTAGYNLDQVLEQGGLSSLFQKLGVSVTPIQKIVLSGENGLKIDIHVIIPYEGLSGYQMGQIEKIFKVVYPVDDHHFKVILHYGTLVIDGVTPNMIDYFGRPYEGIAVFDGKKITVTGTLWNGNKIIDERLINPDGSLLFRVTINGVTGWRLCERILA
Take B3: the baseline in data set [4] (HEK293, 10 nM FSK, 4 h) is 39,700,000; in data set [6] (NIH3T3, 10 nM FSK, 4 h), 9,187,000; in data set [7] (1 μM sulphoraphane), 15,600,000; in data set [7] (1 μM tBHQ), 15,100,000. Moreover, the “RLU (10 mM FSK)” value is reported as 654,000,000 RLU in data set [4] (HEK293, 4 h) and 23,600,000 RLU in data set [6] (NIH3T3, 4 h). Besides, the Response in data set [4] (HEK293, FSK) is reported as 16; in data set [6] (NIH3T3, FSK), 2.6; in data set [7] (sulphoraphane), 5.8; in data set [7] (tBHQ), 8. Besides, the “induced luminescence higher than Luc2 transcriptional reporter” value in data set [5] is “approximately 1.5 logs”. For the same molecule, the “induced luminescence higher than induced Renilla transcriptional reporter” value in data set [5] is given as “approximately 2.5 logs”. For the same molecule, the fold-induction came to 360 in data set [5] (30 ng of DNA) and 109 in data set [5] (100 ng of DNA). Further, in data set [8], the “RLU (20 μM sulphoraphane)” value was 89,600,000 RLU. Further, in data set [8], the “RLU (20 μM tBHQ)” value is given as 120,000,000 RLU.
